Earlier results, collected in article PMC6176727.

Tests used:
[1] = target: CLV1 (Arabidopsis thaliana) (UniProt Q9SYQ8)
[2] = target: CLV1 ectodomain (Arabidopsis thaliana) (UniProt Q9SYQ8)

For “CLV3p (13-amino-acid) (from UniProt Q9XF04)”, the Kd [1] is listed as 280 nM and the Kd [2] is listed as 1 nM.
